Measurements published in US20170121382A1 (published 2017).
Where two headings read alike, the source gives them in different places.

How the values were obtained:
Experiment in all cases: SPR
[1] = target: T1, human recombinant DMP1 (human, UniProt Q13316 17-513)
T1 chain: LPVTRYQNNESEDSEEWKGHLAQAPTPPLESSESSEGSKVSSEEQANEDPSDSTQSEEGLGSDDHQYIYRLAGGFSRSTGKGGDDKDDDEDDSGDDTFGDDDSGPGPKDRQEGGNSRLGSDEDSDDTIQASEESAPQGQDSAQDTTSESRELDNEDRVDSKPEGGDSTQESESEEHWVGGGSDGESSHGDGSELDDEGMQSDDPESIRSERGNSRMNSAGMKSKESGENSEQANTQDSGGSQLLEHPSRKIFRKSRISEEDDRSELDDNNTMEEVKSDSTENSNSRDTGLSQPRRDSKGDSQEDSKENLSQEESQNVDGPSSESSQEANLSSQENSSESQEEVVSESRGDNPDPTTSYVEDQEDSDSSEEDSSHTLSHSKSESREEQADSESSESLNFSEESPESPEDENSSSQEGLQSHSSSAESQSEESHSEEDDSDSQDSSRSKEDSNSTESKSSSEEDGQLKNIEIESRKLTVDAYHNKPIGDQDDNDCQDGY

[2] = target: T1, human recombinant DMP1
[3] = target: ASARM peptide

B1: soluble human recombinant PHEX (enzyme)
chain: SLQAKQEYCLKPECIEAAAAILSKVNLSVDPCDNFFRFACDGWISNNPIPEDMPSYGVYPWLRHNVDLKLKELLEKSISRRRDTEAIQKAKILYSSCMNEKAIEKADAKPLLHILRHSPFRWPVLESNIGPEGVWSERKFSLLQTLATFRGQYSNSVFIRLYVSPDDKASNEHILKLDQATLSLAVREDYLDNSTEAKSYRDALYKFMVDTAVLLGANSSRAEHDMKSVLRLEIKIAEIMIPHENRTSEAMYNKMNISELSAMIPQFDWLGYIKKVIDTRLYPHLKDISPSENVVVRVPQYFKDLFRILGSERKKTIANYLVWRMVYSRIPNLSRRFQYRWLEFSRVIQGTTTLLPQWDKCVNFIESALPYVVGKMFVDVYFQEDKKEMMEELVEGVRWAFIDMLEKENEWMDAGTKRKAKEKARAVLAKVGYPEFIMNDTHVNEDLKAIKFSEADYFGNVLQTRKYLAQSDFFWLRKAVPKTEWFTNPTTVNAFYSASTNQIRFPAGELQKPFFWGTEYPRSLSYGAIGVIVGHEFTHGFDNNGRKYDKNGNLDPWWSTESEEKFKEKTKCMINQYSNYYWKKAGLNVKGKRTLGENIADNGGLREAFRAYRKWINDRRQGLEEPLLPGITFTNNQLFFLSYAHVRCNSYRPEAAREQVQIGAHSPPQFRVNGAISNFEEFQKAFNCPPNSTMNRGMDSCRLW
[1]
  Kd: 248 nM
[2]
  Kd: 248 nM

B2: PHEX (enzyme)
chain: B1 chain
[3]
  Kd: 176 nM
